The target in assay [1] is recombinant human IL-5 (human) (UniProt P05113). The assay can be described thus: cell-based or functional assay.
Assay [2] concerns the target cynomolgus monkey IL-5 (cynomolgus monkey). The assay can be described thus: cell-based or functional assay.

Turning to Mepolizumab (antibody), the IC50, inhibition of IL-5 driven proliferation of TF-1.6G4 cells (Mean, pM) in assay [1] was determined as 534 pM; in assay [2], 584 pM.
